This data set concerns the molecule itself. As to the kind of experiment: X-ray crystal structure, homotetramer. The protocol:
Molecular replacement was carried out using the program MOLREP from the CCCP4i-program suite with the coordinates of bovine AQP1 (PDB entry 1J4N) (SEQ ID NO: 38) as the model. Using two copies of the model in the molecular replacement search, a clear solution with a correlation coefficient and R-factor of 34.3% and 53.1% respectively was found. The crystal packing was checked using the program O (30) and there were no overlaps between molecules. Automated model building was carried out using ARP/WARP (31) and the resulting model was docked to the correct sequence using GUISIDE2. The calculated electron density map at this stage was already of very good quality. Water molecules were picked using ARP/WARP. The model was subjected to multiple rounds of refinement in REFMAC5 (29), NCSREF (29) and CNS (32) with manual rebuilding in O between each round. During refinement, NCS restraints between the two molecules in the asymmetric unit (molecule A and B) were used. […] The R-factor and Rfree are 18.1% and 20.8% respectively. The quality of the structure was checked in PROCHECK (33).

One protein from patent US7919587 (HYDROGENE LUND, dated 2011) can be followed below.

B1: SoPIP2;1, plasma membrane aquaporin of spinach (other)
chain: MSKEVSEEAQAHQHGKDYVDPPPAPFFDLGELKLWSFWRAAIAEFIATLLFLYITVATVIGHSKETVVCGSVGLLGIAWAFGGMIFVLVYCTAGISGGHINPAVTFGLFLARKVSLLRALVYMIAQCLGAICGVGLVKAFMKGPYNQFGGGANSVALGYNKGTALGAEIIGTFVLVYTVFSATDPKRSARDSHVPILAPLPIGFAVFMVHLATIPITGTGINPARSFGAAVIFNSNKVWDDQWIFWVGPFIGAAVAAAYHQYVLRAAAIKALGSFRSNPTN
notes: also called PM28A; spinach aquaporin
Take B1: the binding result is “binds”.
